According to the RNAGym collection of RNA variant scans (doi:10.1093/molbev/msab373):

B1: Azoarcus group I ribozyme (parent)
chain: GUGCCUUGCGCCGGGAAACCACGCAAGGGAUGGUGUCAAAUUCGGCGAAACCUAAGCGCCCGCCCGGGCGUAUGGCAACGCCGAGCCAAGCUUCGGCGCCUGCGCCGAUGAAGGUGUAGAGACUAGACGGCACCCACCUAAGGCAAACGCUAUGGUGAAGGCAUAGUCCAGGGAGUGGCGAAAGUCACACAAACCGG

Variants of: B1
Experiment: reverse-splicing fitness (ratio to wild type); higher = more active; in vitro selection; Mg2+ level not given
Outline: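 An in vitro group I ribozyme library with randomized positions was T7-transcribed and gel-purified. In triplicate, 10 pmol RNA in EPPS pH 7.5 was reacted with 50 pmoles of a 30-nt RNA substrate for 1 h at 37 °C across several added MgCl2 levels (1–48 mM), then stopped with EDTA. Products were reverse transcribed from a substrate-complementary primer, PCR-amplified and sequenced (HiSeq 4000). Fitness is a variant's read proportion after selection over that before, normalised to wild type.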

Compared with C82A A111U A120G A145C C150G C169G U176A, C82A A111U A120G A145C C150G C169G U176C is lower in reverse-splicing fitness: 0.00863 for the first, 0.00725 for the second.

Going from C82A A111U A120G A145C C150G C169G U176G to C82A A111U A120C C169G U176A, the reverse-splicing fitness rises from 0.00452 to 0.0231.

First: C82A A111U A120C C169G U176C
Second: C82A A111U A120C C169G U176G
The reverse-splicing fitness of the first is higher: 0.0298 for the first, 0.00706 for the second.

Going from C82A A111U A120G A145C C169G U176C to C82A A111U A120G A145C C169G U176G, the reverse-splicing fitness falls from 0.0184 to 0.00418.

Compared with C82A A111U A120G A145C C169G U176A, C82A A111U A120C C150A C169U U176A is lower in reverse-splicing fitness: 0.0247 for the first, 0.0186 for the second.

Going from C82A A111U A120C C150A C169U U176C to C82A A111U A120C C150A C169U U176G, the reverse-splicing fitness falls from 0.0167 to 0.00905.

Going from C82A A111U A120G A145G C150U U176G to C82A A111U A120G A145G C150U U176C, the reverse-splicing fitness rises from 0.00803 to 0.0178.

Compared with C82A A111U A120G A145G C150U U176A, C82A A111U A120G A145C C150A C169G is lower in reverse-splicing fitness: 0.00963 for the first, 0.00858 for the second.

Going from C82A A111U A120G A145C C150A C169A to C82A A111U A120G A145C C150A C169U, the reverse-splicing fitness rises from 0.00789 to 0.00834.

Compared with C82A A111U A120G A145G C150A C169A U176G, C82A A111U A120G A145G C150A C169A U176C is higher in reverse-splicing fitness: 0.00817 for the first, 0.0248 for the second.

Compared with C82A A111U A120G A145G C150A C169A U176A, C82A A111U A120C C150U C169U U176A is lower in reverse-splicing fitness: 0.0191 for the first, 0.0156 for the second.

Going from C82A A111U A120C C150U C169U U176C to C82A A111U A120C C150U C169U U176G, the reverse-splicing fitness falls from 0.0145 to 0.00737.

Compared with C82A A111U A120G A145G C169G U176G, C82A A111U A120G A145G C169G U176A is higher in reverse-splicing fitness: 0.00424 for the first, 0.021 for the second.

Compared with C82A A111U A120G A145G C169G U176C, C82A A111U A120G A145G C150U C169A U176A is lower in reverse-splicing fitness: 0.0285 for the first, 0.0144 for the second.

First: C82A A111U A120G A145G C150U C169A U176C
Second: C82A A111U A120G A145G C150U C169A U176G
The reverse-splicing fitness of the first is higher: 0.0165 for the first, 0.00668 for the second.

Compared with C82A A111U A120G C150A C169U U176C, C82A A111U A120G C150A C169U U176A is higher in reverse-splicing fitness: 0.02 for the first, 0.021 for the second.

First: C82A A111U A120G C150A C169U U176G
Second: C82A A111U A120G C150U U176C
The reverse-splicing fitness of the first is lower: 0.00816 for the first, 0.0178 for the second.

Going from C82A A111U A120G C150U U176A to C82A A111U A120G C150U U176G, the reverse-splicing fitness falls from 0.0109 to 0.00825.

First: C82A A111U A120G A145G C150A C169U U176G
Second: C82A A111U A120G A145G C150A C169U U176A
The reverse-splicing fitness of the first is lower: 0.0069 for the first, 0.0197 for the second.

First: C82A A111U A120G A145G C150A C169U U176C
Second: C82A A111U A120G A145G C150U C169U U176C
The reverse-splicing fitness of the first is higher: 0.0167 for the first, 0.0156 for the second.

Going from C82A A111U A120G A145G C150U C169U U176G to C82A A111U A120G A145G C150U C169U U176A, the reverse-splicing fitness rises from 0.00618 to 0.0181.

First: C82A A111U A120G A145U C150U C169U U176A
Second: C82A A111U A120G A145U C150U C169U U176G
The reverse-splicing fitness of the first is higher: 0.0207 for the first, 0.00524 for the second.

First: C82A A111U A120G A145U C150U C169U U176C
Second: C82A A111U A120G A145G C150U
The reverse-splicing fitness of the first is higher: 0.0148 for the first, 0.0133 for the second.

First: C82A A111U A120G A145G C150G
Second: C82A A111U A120G A145G C150A
The reverse-splicing fitness of the first is lower: 0.00699 for the first, 0.0095 for the second.

Going from C82A A111U A120G C150G C169U U176G to C82A A111U A120G C150G C169U U176A, the reverse-splicing fitness rises from 0.00618 to 0.01.

First: C82A A111U A120G C150G C169U U176C
Second: C82A A111U A120G A145C C150G C169U
The reverse-splicing fitness of the first is higher: 0.0145 for the first, 0.00766 for the second.

Going from C82A A111U A120G A145C C150G C169G to C82A A111U A120G A145C C150G C169A, the reverse-splicing fitness rises from 0.00674 to 0.00846.

Compared with C82A A111U A120G A145G C169U, C82A A111U A120G A145G C169G is higher in reverse-splicing fitness: 0.00913 for the first, 0.0107 for the second.

First: C82A A111U A120G A145G C169A
Second: C82A A111U A120G A145U C150G C169G
The reverse-splicing fitness of the first is higher: 0.00997 for the first, 0.00685 for the second.

First: C82A A111U A120G A145U C150G C169U
Second: C82A A111U A120G A145U C150G C169A
The reverse-splicing fitness of the first is lower: 0.00845 for the first, 0.00884 for the second.

First: C82A A111U A120C C169U U176G
Second: C82A A111U A120C C169U U176A
The reverse-splicing fitness of the first is lower: 0.00659 for the first, 0.0177 for the second.

Going from C82A A111U A120C C169U U176C to C82A A111U A120G A145U C169A, the reverse-splicing fitness falls from 0.0158 to 0.00877.

First: C82A A111U A120G A145U C169G
Second: C82A A111U A120G A145U C169U
The reverse-splicing fitness of the first is higher: 0.00975 for the first, 0.00974 for the second.

Going from C82A A111U A120C C150A C169A U176C to C82A A111U A120C C150A C169A U176G, the reverse-splicing fitness falls from 0.0233 to 0.0108.

Compared with C82A A111U A120G A145U U176G, C82A A111U A120G A145U U176C is higher in reverse-splicing fitness: 0.00522 for the first, 0.0145 for the second.

Compared with C82A A111U A120G A145U U176A, C82A A111U A120C C169A is lower in reverse-splicing fitness: 0.0132 for the first, 0.00982 for the second.

Going from C82A A111U A120C C169U to C82A A111U A120C C169G, the reverse-splicing fitness falls from 0.0143 to 0.00957.

Compared with C82A A111U A120G A145U C150A U176A, C82A A111U A120G A145U C150A U176C is higher in reverse-splicing fitness: 0.0128 for the first, 0.0152 for the second.

Compared with C82A A111U A120G A145U C150A U176G, C82A A111U A120G A145G C150G U176A is higher in reverse-splicing fitness: 0.00656 for the first, 0.00704 for the second.

Compared with C82A A111U A120G A145G C150G U176C, C82A A111U A120G A145G C150G U176G is lower in reverse-splicing fitness: 0.0105 for the first, 0.00604 for the second.

Going from C82A A111U A120G C150U C169G to C82A A111U A120G C150U C169A, the reverse-splicing fitness rises from 0.0105 to 0.0106.

C82A A111U A120G C150U C169U showed a reverse-splicing fitness of 0.00932.
